Values quoted from earlier work, collected in article PMC6359508.

Molecular target: actin microfilament (UniProt P68133)

- Kd: 0.15 µM
Substance: V-ATPase B subunit (from UniProt P21281)
